This passage reports stoichiometry N results from publication PMC10781510.

The test deals with HIS-MBP-GASZ-ΔMLS (mouse). Nature of the test: native gel or EMSA; native PAGE of gel-filtration fraction 5, non-reducing and non-denaturing sample buffer (50 mM Tris pH 7.6, 100 mM NaCl, 0.01% DDM), with or without 2% SDS in the loading buffer, Coomassie blue; monomer to dimer. (In general: In EMSA bound probe runs differently from free probe, usually more slowly.)

A word on the stoichiometry N: it is the number of molecules, sites or subunits per partner or assembly.

The substance HIS-MBP-GASZ-ΔMLS (domain or fragment) registered a stoichiometry N of 2.
